We go through two molecules from US20090036364A1.

One assay addresses T1, GLP-1 receptor, P32301.
T1 chain: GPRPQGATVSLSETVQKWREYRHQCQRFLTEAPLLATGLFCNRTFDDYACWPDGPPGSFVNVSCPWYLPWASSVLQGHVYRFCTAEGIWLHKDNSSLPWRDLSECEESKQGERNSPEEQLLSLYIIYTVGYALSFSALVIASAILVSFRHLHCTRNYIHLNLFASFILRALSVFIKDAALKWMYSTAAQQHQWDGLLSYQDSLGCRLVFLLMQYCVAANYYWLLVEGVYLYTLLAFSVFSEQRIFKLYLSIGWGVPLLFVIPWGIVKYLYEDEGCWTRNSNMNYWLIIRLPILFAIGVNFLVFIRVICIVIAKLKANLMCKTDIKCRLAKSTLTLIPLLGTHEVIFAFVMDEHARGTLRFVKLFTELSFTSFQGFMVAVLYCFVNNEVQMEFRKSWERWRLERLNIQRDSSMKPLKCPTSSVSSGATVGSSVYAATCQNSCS
As to the kind of experiment: GLP-1 receptor binding, displacement of [125I]GLP-1 on RINm5F cell membranes.

For the next assay, the target named is T2, GIP receptor.
T2 sequence (P48546 whole entry, species assumed, looked up): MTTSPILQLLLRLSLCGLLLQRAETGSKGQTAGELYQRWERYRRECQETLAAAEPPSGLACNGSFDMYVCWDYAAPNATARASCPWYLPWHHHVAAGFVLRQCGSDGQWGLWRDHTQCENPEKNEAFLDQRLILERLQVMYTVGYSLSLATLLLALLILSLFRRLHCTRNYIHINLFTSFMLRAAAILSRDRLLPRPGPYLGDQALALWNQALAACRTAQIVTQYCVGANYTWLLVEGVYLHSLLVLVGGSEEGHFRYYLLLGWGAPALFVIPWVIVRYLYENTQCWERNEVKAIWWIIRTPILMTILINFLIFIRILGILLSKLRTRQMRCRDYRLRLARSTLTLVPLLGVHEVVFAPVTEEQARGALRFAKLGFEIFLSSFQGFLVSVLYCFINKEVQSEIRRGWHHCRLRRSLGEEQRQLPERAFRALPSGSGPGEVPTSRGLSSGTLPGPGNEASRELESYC
Description: GIP receptor binding assay.

Square brackets hold non-standard residues; d marks the D form. Ends that are not written are not given here.

The molecule YAEGTFISDYSIAMDKIHQQDFVNWLLAQKPSSGAPPPS (modifications not checked) [0601GIP3794, (D-Ala2)GIP(1-30)-… amide form] had a GLP RBA in the assay with GLP-1 receptor, P32301 of 1000. Molecule Y[dA]EGTFISDYSIAMDKIHQQDFVNWLLAQKPKKIRYS [0601GIP4233, [dAla2] GIP-(1-30)-fGLP-1v2-(31-37)] displayed a GIP RBA with GIP receptor of 0.1 nM.
